Where two headings read alike, the source gives them in different places.

Five substances from article PMC6539845 can be followed below.

For experiment [1], the target named is single-ring α7 mutant α7^SR (S96D, S100D, F102R, Y104R) (human). Put plainly: native MS; α4 or α6 (4 μM monomers) mixed with α7^SR (4 μM heptamer), 20 °C, 1 h; α2 incubated with α7^SR before buffer exchange; 150 mM ammonium acetate.
The target of experiment [2] is monomeric α7 mutant α7* (N-terminal residues 1-22 replaced with a hexahistidine-containing segment) (human) (UniProt P25788). Put plainly: SEC; α1–α6 (20 μM monomers) mixed with an equimolar amount of α7*, 20 °C, 1 h; SDS-PAGE (CBB) of the purified complexes. (In general: In gel filtration, larger molecules generally elute earlier.)
For experiment [3], the target named is human proteasome α6 subunit, short isoform (human) (UniProt P25786). Put plainly: native MS; single proteins, 5–20 μM monomers, 150 mM ammonium acetate (pH 6.8–8.0), nanoflow electrospray.
The target in experiment [4] is human proteasome α7 subunit, wild type (human) (UniProt P25788). Put plainly: native MS; α4 or α6 (4 μM monomers) mixed with α7 (2 μM tetradecamer), 20 °C, 1 h, 150 mM ammonium acetate.
Sequence of human proteasome α7 subunit, wild type (human) (P25788 whole entry): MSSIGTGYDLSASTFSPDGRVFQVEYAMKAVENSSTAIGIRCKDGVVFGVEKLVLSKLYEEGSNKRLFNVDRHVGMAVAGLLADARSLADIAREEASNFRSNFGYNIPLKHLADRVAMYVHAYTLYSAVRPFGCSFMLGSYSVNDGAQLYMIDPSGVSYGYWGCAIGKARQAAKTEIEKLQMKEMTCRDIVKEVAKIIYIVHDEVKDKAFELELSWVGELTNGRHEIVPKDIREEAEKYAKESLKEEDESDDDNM
The target is the same in experiment [5]. Put plainly: SEC; wild-type α7 in the presence of α1–α6 or α7* (20 μM monomers); loss of the tetradecamer peak.
Experiment [6] has the same target. Briefly: native MS; α4 or α6 (4 μM monomers) mixed with α7 (2 μM tetradecamer), 20 °C, 1 h, 150 mM ammonium acetate. The source holds these as a separate data set.
Experiment [7] shares this target. Put plainly: native MS; single proteins, 5–20 μM monomers, 150 mM ammonium acetate (pH 6.8–8.0), nanoflow electrospray.
The target of experiment [8] is single-ring α7 mutant α7^SR (S96D, S100D, F102R, Y104R) (human). Described as above.
The target is the same in experiment [9]. Put plainly: atomic force microscopy; α7^SR alone (Figure S2); height of the ring.
The target is the same in experiment [10]. Put plainly: native MS; single proteins, 5–20 μM monomers, 150 mM ammonium acetate (pH 6.8–8.0), nanoflow electrospray. The source holds these as a separate data set.

Sequence of human proteasome α6 subunit, short isoform (P25786 whole entry, canonical isoform): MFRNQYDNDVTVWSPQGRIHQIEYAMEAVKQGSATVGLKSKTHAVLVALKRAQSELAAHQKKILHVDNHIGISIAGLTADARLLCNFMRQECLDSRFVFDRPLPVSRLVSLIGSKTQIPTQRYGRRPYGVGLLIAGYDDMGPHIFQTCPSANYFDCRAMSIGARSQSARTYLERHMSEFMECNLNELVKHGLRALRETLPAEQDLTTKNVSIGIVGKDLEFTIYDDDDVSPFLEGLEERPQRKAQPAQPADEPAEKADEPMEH
Sequence of human proteasome α4 subunit (O14818 whole entry): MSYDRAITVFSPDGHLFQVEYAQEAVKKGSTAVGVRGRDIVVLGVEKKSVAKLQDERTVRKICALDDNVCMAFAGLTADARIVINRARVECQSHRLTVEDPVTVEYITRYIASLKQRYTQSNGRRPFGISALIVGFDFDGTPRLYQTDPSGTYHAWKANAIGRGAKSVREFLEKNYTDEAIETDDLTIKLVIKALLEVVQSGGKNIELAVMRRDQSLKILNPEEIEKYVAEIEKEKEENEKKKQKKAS
Sequence of human proteasome α2 subunit (P25787 whole entry): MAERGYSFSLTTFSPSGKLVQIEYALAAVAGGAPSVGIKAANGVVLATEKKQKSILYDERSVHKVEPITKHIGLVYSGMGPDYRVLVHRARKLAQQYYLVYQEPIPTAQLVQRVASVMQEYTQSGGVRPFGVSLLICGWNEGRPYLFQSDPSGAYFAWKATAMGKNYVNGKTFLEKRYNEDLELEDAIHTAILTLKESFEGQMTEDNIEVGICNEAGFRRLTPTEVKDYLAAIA
Sequence of human proteasome α7 subunit, wild type (P25788 whole entry): as the sequence (P25788 whole entry) above

In the case of “human proteasome α2 subunit (from UniProt P25787 1-234) (natural protein)”, the stoichiometry N (α7^SR subunits per α2) in [1] is 7.

On to “human proteasome α4 subunit (from UniProt O14818 1-248) (natural protein)”, for which, in experiment [1], the stoichiometry N (α7^SR subunits per α4) was found to be 7. Besides, the stoichiometry N in experiment [2] was 1.2 α7· per α4.

Take “human proteasome α6 subunit, short isoform (from UniProt P25786 1-263) (natural protein)”: in experiment [3], the stoichiometry N turned out to be 2. This substance returned a stoichiometry N (α7^SR subunits per α6) in experiment [1] of 7. The stoichiometry N (α7 subunits per α6) in experiment [4] stood at 7; in experiment [6], 14. Further, in experiment [5], the percent of the α7 tetradecamer disrupted into smaller complexes is 50%.

In turn, “human proteasome α7 subunit, wild type (from UniProt P25788 1-255) (natural protein)” returned a stoichiometry N in experiment [7] of 14.

For “single-ring α7 mutant α7^SR (S96D, S100D, F102R, Y104R) (natural protein)”, the stoichiometry N in [8] stood at 7; in [9] it was 7; in experiment [10], 14.

As usually defined, the stoichiometry N is a count of units in the complex or per binding partner.
